Experimental data as given in publication PMC6805999, “Molecular Mechanism of SR Protein Kinase 1 Inhibition by the Herpes Virus Protein ICP27” (mBio, 2019).
Square brackets hold non-standard residues; d marks the D form. Ends that are not written are not given here.

Tests used:
[1] = biological target: T1, GB1-SRPK1 (full-length SRPK1 with N-terminal GB1 solubility tag) (Homo sapiens, UniProt Q96SB4); assay: Isothermal titration calorimetry (ITC) of ICP27 peptides with GB1-SRPK1; type: binding; details: 25°C, 10 μM GB1-SRPK1 in cell, 120 μM peptide in syringe, 20 mM HEPES, 150 mM NaCl, 1 mM TCEP pH 7.4, single-site model, mean of 3 runs (± SD)
T1 construct: His tag; made in house; host or cells: E. coli BL21-CodonPlus (DE3)-RP
From the text: The RGG box in full-length ICP27 (Fig. 1A) was previously identified by mutagenesis experiments as the segment necessary for interaction with SRPK1 ([27]), with the binding modulated by arginine methylation ([51]). […] To further confirm and map the RGG box interaction with SRPK1, we expressed and purified ^15N-labeled ICP27^103–155 and using the established backbone assignment ([55]) carried out nuclear magnetic resonance (NMR) signal perturbation mapping by comparison of ^1H-^15N correlation spectra in the presence and absence of unlabeled GB1-SRPK1 (Fig. 1E). […] These solution data together confirmed that SRPK1 binds with high affinity to a relatively short region of ICP27 containing the RGG box, with possible further contributions from nearby residues 112 to 121, whereas other residues retain significant flexibility when the peptide is bound. […]
GB1-SRPK1 and ICP27 peptides were placed into Slide-a-Lyzer G2 cassettes (Thermo Fisher) and dialyzed within identical buffer consisting of 20 mM HEPES, 150 mM NaCl, and 1 mM TCEP [Tris(2-carboxyethyl)phosphine hydrochloride] […] Protein concentrations were measured by absorbance at 280 nm using extinction coefficients ([67]) of 86,580 M^−1 cm^−1 and 5,500 M^−1 cm^−1 for GB1-SRPK1 and ICP27^103–155, respectively. […]

SRPK1 (Homo sapiens) = SRPK1 (Homo sapiens) (UniProt Q96SB4); details: cited from earlier work
[2] = biological target: T2, full-length SRPK1 tagged with an N-terminal GB1 solubility tag (human, UniProt Q96SB4 1-655); assay: ITC; 10 μM GB1-SRPK1 in the sample cell, 120 μM ICP27 peptide in the syringe; 25°C; 20 mM HEPES, 150 mM NaCl, 1 mM TCEP, pH 7.4; single-site binding model; details: both partners purified
T2 construct: serine-arginine protein kinase 1 (SRPK1), human, full length; probably also carries a His tag used for purification; also called GB1-SRPK1; serine-arginine protein kinase 1; source: E. coli, purified (GST or His tag purification, size exclusion chromatography); not shown: GB1, N-terminal, kept
T2 sequence (Q96SB4 whole entry): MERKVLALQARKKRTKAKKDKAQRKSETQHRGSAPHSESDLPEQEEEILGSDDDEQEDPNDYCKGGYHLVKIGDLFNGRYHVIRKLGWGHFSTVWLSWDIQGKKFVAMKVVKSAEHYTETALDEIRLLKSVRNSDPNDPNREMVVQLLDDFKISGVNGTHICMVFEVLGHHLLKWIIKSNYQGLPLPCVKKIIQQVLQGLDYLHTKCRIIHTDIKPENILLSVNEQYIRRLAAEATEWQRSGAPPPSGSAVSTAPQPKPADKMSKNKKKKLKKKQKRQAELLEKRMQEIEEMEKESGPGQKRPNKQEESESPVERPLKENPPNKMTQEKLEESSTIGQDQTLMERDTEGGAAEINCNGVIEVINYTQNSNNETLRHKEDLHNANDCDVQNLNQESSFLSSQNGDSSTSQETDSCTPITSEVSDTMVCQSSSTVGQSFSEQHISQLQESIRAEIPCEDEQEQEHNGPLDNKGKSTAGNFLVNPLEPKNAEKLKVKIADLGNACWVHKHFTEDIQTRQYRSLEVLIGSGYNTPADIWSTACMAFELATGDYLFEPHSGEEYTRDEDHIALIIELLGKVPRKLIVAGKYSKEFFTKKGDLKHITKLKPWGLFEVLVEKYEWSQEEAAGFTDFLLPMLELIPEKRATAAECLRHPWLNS

T1 sequence (Q96SB4 whole entry): as above
SRPK1 (Homo sapiens), sequence (Q96SB4 whole entry): as above
SRSF1, sequence (Q07955 2-248): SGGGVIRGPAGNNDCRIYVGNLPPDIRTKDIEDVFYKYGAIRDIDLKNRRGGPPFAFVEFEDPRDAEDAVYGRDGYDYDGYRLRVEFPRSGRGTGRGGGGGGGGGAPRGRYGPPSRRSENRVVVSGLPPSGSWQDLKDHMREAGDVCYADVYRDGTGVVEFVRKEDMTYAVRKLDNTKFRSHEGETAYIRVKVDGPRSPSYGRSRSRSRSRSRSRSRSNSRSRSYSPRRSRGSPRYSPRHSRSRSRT

Molecule | Kd [1] [nM] | Kd [2] [nM] | also measured
CC(C)C[C@H](NC(=O)[C@H](CCCNC(=N)N)NC(=O)[C@H](CO)NC(=O)[C@H](Cc1c[nH]c2ccccc12)NC(=O)[C@@H](NC(=O)[C@@H](N)CO)C(C)C)C(=O)NCC(=O)N[C@@H](C)C(=O)N[C@@H](CCCNC(=N)N)C(=O)N[C@@H](CCCNC(=N)N)C(=O)N1CCC[C@H]1C(=O)N[C@@H](CO)C(=O)N[C@@H](CS)C(=O)N[C@@H](CO)C(=O)N1CCC[C@H]1C(=O)N[C@@H](CCC(=O)O)C(=O)N[C@@H](CCCNC(=N)N)C(=O)N[C@@H](Cc1c[nH]cn1)C(=O)NCC(=O)NCC(=O)N[C@@H](CCCCN)C(=O)N[C@H](C(=O)N[C@@H](C)C(=O)N[C@@H](CCCNC(=N)N)C(=O)N[C@@H](CC(C)C)C(=O)N[C@@H](CCC(N)=O)C(=O)N1CCC[C@H]1C(=O)N1CCC[C@H]1C(=O)N1CCC[C@H]1C(=O)N[C@H](C(=O)N[C@@H](CCCCN)C(=O)N[C@@H](C)C(=O)N[C@@H](CCC(N)=O)C(=O)N1CCC[C@H]1C(=O)N[C@@H](C)C(=O)N[C@@H](CCCNC(=N)N)C(=O)NCC(=O)NCC(=O)N[C@@H](CCCNC(=N)N)C(=O)N[C@@H](CCCNC(=N)N)C(=O)NCC(=O)N[C@@H](CCCNC(=N)N)C(=O)N[C@@H](CCCNC(=N)N)C(=O)N[C@@H](CCCNC(=N)N)C(=O)NCC(=O)N[C@@H](CCCNC(=N)N)C(=O)NCC(=O)N[C@@H](CCCNC(=N)N)C(=O)NCC(=O)NCC(=O)N1CCC[C@H]1C(=O)NCC(=O)N[C@@H](C)C(=O)O)[C@@H](C)O)C(C)C [ICP27^103–155] | 93.9 |  | 
CC(C)C[C@H](NC(=O)[C@H](CCCNC(=N)N)NC(=O)[C@H](CO)NC(=O)[C@H](Cc1c[nH]c2ccccc12)NC(=O)[C@@H](NC(=O)[C@@H](N)CO)C(C)C)C(=O)NCC(=O)N[C@@H](C)C(=O)N[C@@H](CCCNC(=N)N)C(=O)N[C@@H](CCCNC(=N)N)C(=O)N1CCC[C@H]1C(=O)N[C@@H](CO)C(=O)N[C@@H](CS)C(=O)N[C@@H](CO)C(=O)N1CCC[C@H]1C(=O)N[C@@H](CCC(=O)O)C(=O)N[C@@H](CCCNC(=N)N)C(=O)N[C@@H](Cc1c[nH]cn1)C(=O)NCC(=O)NCC(=O)N[C@@H](CCCCN)C(=O)N[C@H](C(=O)N[C@@H](C)C(=O)N[C@@H](CCCNC(=N)N)C(=O)N[C@@H](CC(C)C)C(=O)N[C@@H](CCC(N)=O)C(=O)N1CCC[C@H]1C(=O)N1CCC[C@H]1C(=O)N1CCC[C@H]1C(=O)N[C@H](C(=O)N[C@@H](CCCCN)C(=O)N[C@@H](C)C(=O)N[C@@H](CCC(N)=O)C(=O)N1CCC[C@H]1C(=O)N[C@@H](C)C(=O)N[C@@H](CCCNC(=N)N(C)C)C(=O)NCC(=O)NCC(=O)N[C@@H](CCCNC(=N)N)C(=O)N[C@@H](CCCNC(=N)N)C(=O)NCC(=O)N[C@@H](CCCNC(=N)N)C(=O)N[C@@H](CCCNC(=N)N)C(=O)N[C@@H](CCCNC(=N)N)C(=O)NCC(=O)N[C@@H](CCCNC(=N)N(C)C)C(=O)NCC(=O)N[C@@H](CCCNC(=N)N(C)C)C(=O)NCC(=O)NCC(=O)N1CCC[C@H]1C(=O)NCC(=O)N[C@@H](C)C(=O)O)[C@@H](C)O)C(C)C [methylated ICP27^103–155] | 261 |  | 
SRSF1 (from UniProt Q07955) |  |  | Kd (SRPK1 (Homo sapiens)): 50 nM
synthetic peptide of ICP27 103-155, dimethylated on R138, R148 and R150 (HSV-1 ICP27, residues 103 to 155; also called methylated ICP27^103–155; methylated ICP27^103–155 peptide; source: synthetic peptide (Peptide Protein Research)) peptide: SVWSRLGARRPSCSPEQHGGKVARLQPPPTKAQPA[ADMA]GGRRGRRRG[ADMA]G[ADMA]GGPGA |  | 262 ± 21 | 
synthetic peptide of ICP27 103-155, unmodified (also called unmodified ICP27^103–155; nonmethylated ICP27^103–155 peptide; source: synthetic peptide (Peptide Protein Research)) peptide: SVWSRLGARRPSCSPEQHGGKVARLQPPPTKAQPARGGRRGRRRGRGRGGPGA |  | 94 ± 23 | 
